Source: patent US20180355061A1 (Janssen / Centocor, published 2018)

Molecular target: T1, biotinylated Human PD-1/PDCD1 (Acro Biosystems. Cat #PD1-H82E4) (human, UniProt Q15116 25-167, biotinylated)
T1 construct: Bought reagent, construct not described
Assay: Fab ELISA: Fab captured by anti-Fd(CH1), biotinylated human PD-1 at 5 nM, streptavidin-HRP chemiluminescence; reference parental PD1B878 Fab
Procedure: For follow-up screening, plasmid DNA was prepared from overnight culture of the TG-1 Escherichia coli cells and the pIX gene was excised by NheI/SpeI digestion. After ligation, the DNA was transformed into TG-1 cells and grown on LB/Agar plates overnight. The next day, colonies were picked, grown overnight, and the cultures used for (i) colony sequencing of the V-regions, and (ii) induction of Fab production. For Fab production, the overnight culture was diluted 100 folds in new media and grown for 5-6 hours at 37° C. Fab production was induced by the addition of fresh media containing IPTG and the cultures were grown overnight at 30° C. The following day, the cultures were spun down and the supernatants, containing the soluble Fab proteins, were used for Fab ELISA. For the ELISA, the soluble Fab proteins were captured onto plates by a polyclonal anti-Fd(CH1) antibody. After washing and blocking, biotinylated Human PD-1/PDCD1 was added at 5 nM concentration. This concentration enabled ranking of the Fab variants, defined as fold change versus the parent, in which the parental Fab, present as a control in all plates, is defined as 100% binding. The biotinylated human PD-1 was detected by HRP-conjugated streptavidin with chemiluminescence measured in a plate reader.

T1 sequence (Q15116 25-167 limits assumed): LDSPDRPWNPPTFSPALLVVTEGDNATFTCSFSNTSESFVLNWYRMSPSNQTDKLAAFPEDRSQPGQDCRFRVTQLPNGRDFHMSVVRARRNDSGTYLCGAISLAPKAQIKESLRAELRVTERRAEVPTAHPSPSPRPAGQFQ

| Binder | fold binding relative to parental Fab |
| --- | --- |
| Fab variant of PD1B878 with VH PD1H585 (E57Y) (Fab, V domains shown, Soluble Fab in E. coli supernatant; pairing with the parental VL inferred from the non-combinatorial library design) VH: QVQLVQSGSELKKPGASVKVSCKASGYTFTDYSMHWVRQAPGQGLEWMGWINIETGYPTYAQGFTGRFVFSLDTSVSTAYLQISSLKAEDTAVYFCARDYYGTYFYAMDYWGQGTLVTVSS VL: EIVLTQSPATLSLSPGERATLSCTASSSVSSSYLHWYQQKPGLAPRLLIYSTSNLASGIPDRFSGSGSGTDYTLTISRLEPEDFAVYYCHQYHRSPLTFGQGTKLEIK | ≥ 10 fold |
| Fab variant of PD1B878 with VH PD1H586 (E57H) (Fab, V domains shown, Soluble Fab in E. coli supernatant; pairing with the parental VL inferred) VH: QVQLVQSGSELKKPGASVKVSCKASGYTFTDYSMHWVRQAPGQGLEWMGWINIETGHPTYAQGFTGRFVFSLDTSVSTAYLQISSLKAEDTAVYFCARDYYGTYFYAMDYWGQGTLVTVSS VL: EIVLTQSPATLSLSPGERATLSCTASSSVSSSYLHWYQQKPGLAPRLLIYSTSNLASGIPDRFSGSGSGTDYTLTISRLEPEDFAVYYCHQYHRSPLTFGQGTKLEIK | ≥ 10 fold |

Continued, values first:

| fold binding relative to parental Fab | Binder |
| --- | --- |
| ≥ 10 fold | Fab variant of PD1B878 with VL PD1L651 (V29F) (Fab, V domains shown, Soluble Fab in E. coli supernatant; pairing with the parental VH inferred) VH: QVQLVQSGSELKKPGASVKVSCKASGYTFTDYSMHWVRQAPGQGLEWMGWINIETGEPTYAQGFTGRFVFSLDTSVSTAYLQISSLKAEDTAVYFCARDYYGTYFYAMDYWGQGTLVTVSS VL: EIVLTQSPATLSLSPGERATLSCTASSSFSSSYLHWYQQKPGLAPRLLIYSTSNLASGIPDRFSGSGSGTDYTLTISRLEPEDFAVYYCHQYHRSPLTFGQGTKLEIK |
| ≥ 10 fold | Fab variant of PD1B878 with VH PD1H587 (E57W) (Fab, V domains shown, Soluble Fab in E. coli supernatant; pairing with the parental VL inferred) VH: QVQLVQSGSELKKPGASVKVSCKASGYTFTDYSMHWVRQAPGQGLEWMGWINIETGWPTYAQGFTGRFVFSLDTSVSTAYLQISSLKAEDTAVYFCARDYYGTYFYAMDYWGQGTLVTVSS VL: EIVLTQSPATLSLSPGERATLSCTASSSVSSSYLHWYQQKPGLAPRLLIYSTSNLASGIPDRFSGSGSGTDYTLTISRLEPEDFAVYYCHQYHRSPLTFGQGTKLEIK |
| ≥ 10 fold | Fab variant of PD1B878 with VL PD1L652 (S30P) (Fab, V domains shown, Soluble Fab in E. coli supernatant; pairing with the parental VH inferred) VH: QVQLVQSGSELKKPGASVKVSCKASGYTFTDYSMHWVRQAPGQGLEWMGWINIETGEPTYAQGFTGRFVFSLDTSVSTAYLQISSLKAEDTAVYFCARDYYGTYFYAMDYWGQGTLVTVSS VL: EIVLTQSPATLSLSPGERATLSCTASSSVPSSYLHWYQQKPGLAPRLLIYSTSNLASGIPDRFSGSGSGTDYTLTISRLEPEDFAVYYCHQYHRSPLTFGQGTKLEIK |
